# Measurements as given in publication PMC8420772.
# Biological target: SeMet-labeled MtMce4A_(39–140) (Mycobacterium tuberculosis H37Rv)
# Test: crystal structure; SeMet-labeled protein, 7.5 mg ml^−1; 100 mM MES, 700 mM ammonium sulfate pH 6.0, 22°C; space group P6_(5), 3.6 Å, SAD phasing
substance,measurement,value
SeMet-labeled MtMce4A_(39–140) (domain or fragment),stoichiometry N,2
